{"source": "patent US20050277581A1", "key": {"[1]": {"target": "N,N′-diacetyl-Lys-D-Ala-D-Ala (Sigma D-9904, fw 372.4)", "assay": "ITC, 25 C, no HSA"}, "[2]": {"target": "N,N′-diacetyl-Lys-D-Ala-D-Ala (Sigma D-9904, fw 372.4)", "assay": "ITC, 25 C, 513 µM HSA present"}, "[3]": {"target": "N,N′-diacetyl-Lys-D-Ala-D-Ala (Sigma D-9904, fw 372.4)", "assay": "ITC, 10 C, no HSA"}, "[4]": {"target": "human albumin (HSA; Sigma A-3782; mw 69,366) (human) (UniProt P02768)", "assay": "calculated from ITC Ka, dalbavancin 1-500 µM"}, "[5]": {"target": "N,N′-diacetyl-Lys-D-Ala-D-Ala (Sigma D-9904, fw 372.4)", "assay": "ITC, 25 C, 601 µM HSA present"}, "[6]": {"target": "human serum proteins", "assay": "cell-based or functional assay"}, "[7]": {"target": "mouse serum proteins", "assay": "cell-based or functional assay"}, "[8]": {"target": "N,N′-diacetyl-Lys-D-Ala-D-Ala (Sigma D-9904, fw 372.4)", "assay": "ITC, 25 C, 288 µM HSA present"}, "[9]": {"target": "N,N′-diacetyl-Lys-D-Ala-D-Ala (Sigma D-9904, fw 372.4)", "assay": "ITC, 25 C, 430 µM HSA present"}, "[10]": {"target": "N,N′-diacetyl-Lys-D-Ala-D-Ala (Sigma D-9904, fw 372.4)", "assay": "ITC, 25 C, non-competitive binding model (KL)"}, "[11]": {"target": "human α-glycoprotein (human) (UniProt P02763)", "sequence (P02763 19-201)": "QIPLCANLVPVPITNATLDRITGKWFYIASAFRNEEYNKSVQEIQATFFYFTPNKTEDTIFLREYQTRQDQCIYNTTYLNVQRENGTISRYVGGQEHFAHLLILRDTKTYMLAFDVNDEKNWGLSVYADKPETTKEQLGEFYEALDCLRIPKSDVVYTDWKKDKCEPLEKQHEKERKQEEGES", "assay": "ITC, protein injected into dalbavancin"}, "[12]": {"target": "rat albumin (rat) (UniProt P02770)", "sequence (P02770 25-608 limits assumed)": "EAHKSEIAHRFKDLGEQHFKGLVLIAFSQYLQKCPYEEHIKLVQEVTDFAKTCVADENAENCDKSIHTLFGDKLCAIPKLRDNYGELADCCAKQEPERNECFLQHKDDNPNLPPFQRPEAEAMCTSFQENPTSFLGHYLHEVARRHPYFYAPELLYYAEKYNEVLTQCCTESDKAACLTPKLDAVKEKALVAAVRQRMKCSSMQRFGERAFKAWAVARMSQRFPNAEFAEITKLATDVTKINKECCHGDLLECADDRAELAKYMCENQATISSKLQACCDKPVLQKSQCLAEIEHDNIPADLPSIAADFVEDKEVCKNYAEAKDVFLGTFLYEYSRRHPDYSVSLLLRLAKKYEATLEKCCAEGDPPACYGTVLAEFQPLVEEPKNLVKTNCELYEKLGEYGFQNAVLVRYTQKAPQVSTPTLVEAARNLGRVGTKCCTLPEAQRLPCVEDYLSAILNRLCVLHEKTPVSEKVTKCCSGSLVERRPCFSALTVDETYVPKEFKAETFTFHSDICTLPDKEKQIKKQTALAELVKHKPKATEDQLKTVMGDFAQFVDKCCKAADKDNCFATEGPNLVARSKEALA", "assay": "ITC, protein injected into dalbavancin"}, "[13]": {"target": "dog albumin (dog) (UniProt P49822)", "sequence (P49822 25-608 limits assumed)": "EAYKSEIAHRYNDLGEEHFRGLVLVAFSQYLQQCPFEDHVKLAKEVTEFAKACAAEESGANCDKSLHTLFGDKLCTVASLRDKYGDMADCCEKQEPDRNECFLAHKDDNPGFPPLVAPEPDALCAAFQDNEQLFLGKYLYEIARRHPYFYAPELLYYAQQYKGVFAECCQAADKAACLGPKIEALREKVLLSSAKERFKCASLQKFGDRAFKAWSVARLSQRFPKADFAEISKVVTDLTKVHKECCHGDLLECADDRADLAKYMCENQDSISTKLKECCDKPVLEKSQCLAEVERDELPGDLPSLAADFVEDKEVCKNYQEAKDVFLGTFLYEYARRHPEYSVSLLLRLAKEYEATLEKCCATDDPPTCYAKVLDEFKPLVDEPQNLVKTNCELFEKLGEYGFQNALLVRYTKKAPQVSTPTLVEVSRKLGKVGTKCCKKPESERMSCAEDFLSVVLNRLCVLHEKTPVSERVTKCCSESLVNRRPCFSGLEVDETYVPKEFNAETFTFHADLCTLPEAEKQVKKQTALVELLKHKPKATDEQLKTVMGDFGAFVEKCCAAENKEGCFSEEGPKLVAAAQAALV", "assay": "ITC, protein injected into dalbavancin"}, "[14]": {"target": "bovine albumin (bovine) (UniProt P02769)", "sequence (P02769 25-607 limits assumed)": "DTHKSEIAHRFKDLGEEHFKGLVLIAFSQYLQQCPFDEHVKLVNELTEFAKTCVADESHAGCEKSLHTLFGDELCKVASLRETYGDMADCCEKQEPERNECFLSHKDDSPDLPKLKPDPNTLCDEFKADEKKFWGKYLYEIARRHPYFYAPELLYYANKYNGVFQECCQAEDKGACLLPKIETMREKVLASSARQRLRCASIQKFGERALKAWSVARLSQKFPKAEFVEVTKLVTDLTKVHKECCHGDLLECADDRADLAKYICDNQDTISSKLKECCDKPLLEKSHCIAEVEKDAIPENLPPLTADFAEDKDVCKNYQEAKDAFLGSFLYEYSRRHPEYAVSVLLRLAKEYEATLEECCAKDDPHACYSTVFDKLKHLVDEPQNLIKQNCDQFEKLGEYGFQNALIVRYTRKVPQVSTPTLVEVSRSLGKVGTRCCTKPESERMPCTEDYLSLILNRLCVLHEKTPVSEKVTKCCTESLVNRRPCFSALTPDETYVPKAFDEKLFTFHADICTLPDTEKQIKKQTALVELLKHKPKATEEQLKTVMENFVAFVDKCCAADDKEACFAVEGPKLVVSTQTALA", "assay": "ITC, protein injected into dalbavancin"}, "[15]": {"target": "N,N′-diacetyl-Lys-D-Ala-D-Ala (Sigma D-9904, fw 372.4)", "assay": "ITC, 37 C, 482 µM HSA present"}, "[16]": {"target": "N,N′-diacetyl-Lys-D-Ala-D-Ala (Sigma D-9904, fw 372.4)", "assay": "ITC, 25 C, 104 µM HSA present"}, "[17]": {"target": "N,N′-diacetyl-Lys-D-Ala-D-Ala (Sigma D-9904, fw 372.4)", "assay": "ITC, preliminary experiments, no serum proteins"}, "[18]": {"target": "N,N′-diacetyl-Lys-D-Ala-D-Ala (Sigma D-9904, fw 372.4)", "assay": "ITC, 37 C, no HSA"}}, "note": "pKd: −log10 of the molar value. Several values for one entry are separate records, joined by “and”; a condition that tells them apart may be missing. Equal values may be shown once."}
{"substance": "Vancomycin hydrochloride (Sigma V-2002, fw 1485.7) (peptide)", "values": [{"measurement": "N", "setting": "[1]", "result": "0.91 and 0.97"}, {"measurement": "N", "setting": "[2]", "result": 1.05}, {"measurement": "N", "setting": "[3]", "result": 1.1}]}
{"substance": "Dalbavancin (peptide)", "values": [{"measurement": "percent bound", "setting": "[4]", "result": "> 98", "unit": "%"}, {"measurement": "N", "setting": "[5]", "result": 0.86}, {"measurement": "degree of binding in human serum estimated from MIC difference", "setting": "[6]", "result": 96, "unit": "%"}, {"measurement": "degree of protein binding estimated from MIC difference", "setting": "[7]", "result": 99.6, "unit": "%"}, {"measurement": "N", "setting": "[8]", "result": 0.9}, {"measurement": "N", "setting": "[9]", "result": 1.24}, {"measurement": "pKd", "setting": "[10]", "result": 5.52}, {"measurement": "N (moles of protein per dalbavancin)", "setting": "[11]", "result": "< 1"}, {"measurement": "N (moles of protein per dalbavancin)", "setting": "[12]", "result": "< 1"}, {"measurement": "N (moles of protein per dalbavancin)", "setting": "[13]", "result": "< 1"}, {"measurement": "N (moles of protein per dalbavancin)", "setting": "[14]", "result": "< 1"}, {"measurement": "N", "setting": "[15]", "result": 0.179}, {"measurement": "N", "setting": "[16]", "result": 1.38}, {"measurement": "pKd", "setting": "[17]", "result": 5.00}, {"measurement": "N", "setting": "[18]", "result": 0.82}]}
